Our source for the percent of originally bound S-B resistant to the harsh treatments values is PMC2885309.

The target in the test is 47 aa syntaxin peptide corresponding to the SNARE interaction part of the syntaxin sequence (aa 201-248) (UniProt P32851). The experiment in a line: SPR; Biacore 2000, syntaxin peptide covalently immobilised on a CM5 chip; 0.13 mg/ml S-B in buffer B for 5 min; then washing or denaturing reagents 1 min each; 25°C. In general terms: In SPR one partner is held on a chip, and binding of the other changes the refractive index at the surface.

S-B, fusion of brevin to the C-terminus of SNAP25, sequence (chain): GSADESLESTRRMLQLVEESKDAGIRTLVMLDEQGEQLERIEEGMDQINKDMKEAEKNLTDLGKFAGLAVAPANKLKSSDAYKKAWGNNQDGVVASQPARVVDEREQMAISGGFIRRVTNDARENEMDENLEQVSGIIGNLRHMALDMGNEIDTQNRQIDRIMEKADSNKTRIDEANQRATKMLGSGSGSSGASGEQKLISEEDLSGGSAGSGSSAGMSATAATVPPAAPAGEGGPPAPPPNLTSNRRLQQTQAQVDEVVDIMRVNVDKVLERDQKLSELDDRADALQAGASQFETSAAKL

“S-B, fusion of brevin to the C-terminus of SNAP25”: the percent of originally bound S-B resistant to the harsh treatments was under 50%.
